In US20230052680A1:

Legend:
[1] = target: human FGFR2b (beta)-Fc (human) (UniProt P21802); test: SPR (Biacore T200); hFGFR2b-Fc amine-coupled to CM5 chip, antibody injected at 0-200 nM
[2] = target: human FGFR2b (beta)-Fc (human) (UniProt P21802); test: surface plasmon resonance (Biacore T200), hFGFR2b-Fc amine-coupled to a CM5 chip, antibody injected
[3] = target: human FGFR2b on cells (human) (UniProt P21802); test: flow cytometry on FGFR2b expressing KATOIII cells
[4] = target: recombinant human FGFR2b-Fc (murine Fc) (human) (UniProt P21802); test: ELISA, plate coated with 0.1 ug/ml human FGFR2b-Fc, anti-human IgG HRP detection
[5] = target: human FGFR2b on cells (human) (UniProt P21802); test: flow cytometry on KATOIII cells; sample name as printed 'KATOIII_36C 01nM_023.fcs' (no decimal point printed)
[6] = target: human FGFR2b on cells (human) (UniProt P21802); test: flow cytometry on KATOIII cells; sample name as printed 'KATOIII_36C 05nM_022.fcs' (no decimal point printed)
[7] = target: human FGFR2b on cells (human) (UniProt P21802); test: flow cytometry on KATOIII cells; sample name as printed 'KATOIII_36C 0004nM_025.fcs' (no decimal point printed)
[8] = target: human FGFR2b on cells (human) (UniProt P21802); test: flow cytometry on KATOIII cells; sample name as printed 'KATOIII_36C 002 nM_024.fcs' (no decimal point printed)
[9] = target: human FGFR2b on cells (human) (UniProt P21802); test: flow cytometry on KATOIII cells; sample name as printed 'KATOIII_36C 00009nM_026.fcs' (no decimal point printed)
[10] = target: human FGFR2b (beta)-Fc (human) (UniProt P21802); test: ELISA, plate coated with HuFGFR2b

Kd [1] [nM]	Kd [2] [nM]	koff [2] [s⁻¹]	kon [2] [M⁻¹ s⁻¹]	EC50 [3] [nM]	EC50 (read off the curve) [4] [pM]	Mean : FITC-A [5]	Mean : FITC-A [6]	Mean : FITC-A [7]	Mean : FITC-A [8]	Mean : FITC-A [9]	EC50 (read off the curve) [10] [pM]	Binder
0.189	0.187	2.39e-05	128000									Ab hu36-2 (antibody, human IgG1, V domains shown) VH: QVQLVQSGAEVKKPGSSVKVSCKASGYTFTSYNMHWVRQAPGQGLEWIGAIFPENGDTSYNQKFKGRATITADKSTSTAYMELSSLRSEDTAVYYCARGGFDYWGQGTTVTVSS VL: DIQMTQSPSSLSASVGDRVTITCKASQDVSTNVAWYQQKPGKAPKLLIFSASYRYTGVPSRFSGSGSGTDFTFTISSLQPEDIATYYCQQHYSSPYTFGQGTKLEIK
0.187	0.189	2.44e-05	129000	8	300	455	1800	128	199	121		Ab 36c (antibody, V domains shown) VH: QPYLQQSGAELVRPGASVKMSCKASGYTFTSYNMHWVKQTPRQGLEWIGAIFPENGDTSYNQKFKGKATLTVDKSSSTAYMQLSSLTSEDSAVYFCARGGFDYWGQGTTLTVSS VL: DIVMTQSHKFMSTSVGDRVSITCKASQDVSTNVAWYQQKPGQSPKLLIFSASYRYTGVPDRFAGSGSGTDFTFTISSVQAEDLAVYYCQQHYSSPYTFGGGTKLDIK
											200	Ab 36 (antibody, V domains shown) VH: QPYLQQSGAELVRPGASVKMSCKASGYTFTSYNMHWVKQTPRQGLEWIGAIFPENGDTSYNQKFKGKATLTVDKSSSTAYMQLSSLTSEDSAVYFCARGGFDYWGQGTTLTVSS VL: DIVMTQSHKFMSTSVGDRVSITCKASQDVSTNVAWYQQKPGQSPKLLIFSASYRYTGVPDRFAGSGSGTDFTFTISSVQAEDLAVYYCQQHYSSPYTFGGGTKLDIK
